T1: fibrin clot polymerization (Homo sapiens, UniProt P02671+P02675+P02679)
T1 sequence (P02671 36-866 limits assumed): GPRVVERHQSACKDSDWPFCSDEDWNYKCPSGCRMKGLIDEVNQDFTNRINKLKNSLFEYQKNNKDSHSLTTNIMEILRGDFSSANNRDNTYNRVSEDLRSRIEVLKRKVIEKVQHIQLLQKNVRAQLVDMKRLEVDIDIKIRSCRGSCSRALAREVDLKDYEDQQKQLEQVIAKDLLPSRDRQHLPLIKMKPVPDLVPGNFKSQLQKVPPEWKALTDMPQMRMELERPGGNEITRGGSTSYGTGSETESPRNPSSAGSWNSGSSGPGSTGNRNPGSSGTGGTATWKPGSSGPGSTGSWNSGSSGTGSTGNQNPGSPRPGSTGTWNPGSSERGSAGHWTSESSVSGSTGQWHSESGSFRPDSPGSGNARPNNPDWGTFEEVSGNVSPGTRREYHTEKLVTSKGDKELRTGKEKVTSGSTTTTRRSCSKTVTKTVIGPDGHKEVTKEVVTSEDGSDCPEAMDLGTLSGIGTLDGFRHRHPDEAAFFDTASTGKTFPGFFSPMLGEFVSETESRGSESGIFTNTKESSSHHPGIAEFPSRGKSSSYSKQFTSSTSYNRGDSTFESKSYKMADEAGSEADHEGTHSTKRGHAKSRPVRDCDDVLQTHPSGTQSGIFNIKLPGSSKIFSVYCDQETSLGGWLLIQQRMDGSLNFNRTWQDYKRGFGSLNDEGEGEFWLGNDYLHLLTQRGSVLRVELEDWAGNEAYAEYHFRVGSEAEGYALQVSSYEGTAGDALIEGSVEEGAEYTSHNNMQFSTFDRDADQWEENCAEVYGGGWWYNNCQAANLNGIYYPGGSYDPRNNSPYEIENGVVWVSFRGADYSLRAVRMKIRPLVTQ
T1 sequence (P02675 45-491 limits assumed): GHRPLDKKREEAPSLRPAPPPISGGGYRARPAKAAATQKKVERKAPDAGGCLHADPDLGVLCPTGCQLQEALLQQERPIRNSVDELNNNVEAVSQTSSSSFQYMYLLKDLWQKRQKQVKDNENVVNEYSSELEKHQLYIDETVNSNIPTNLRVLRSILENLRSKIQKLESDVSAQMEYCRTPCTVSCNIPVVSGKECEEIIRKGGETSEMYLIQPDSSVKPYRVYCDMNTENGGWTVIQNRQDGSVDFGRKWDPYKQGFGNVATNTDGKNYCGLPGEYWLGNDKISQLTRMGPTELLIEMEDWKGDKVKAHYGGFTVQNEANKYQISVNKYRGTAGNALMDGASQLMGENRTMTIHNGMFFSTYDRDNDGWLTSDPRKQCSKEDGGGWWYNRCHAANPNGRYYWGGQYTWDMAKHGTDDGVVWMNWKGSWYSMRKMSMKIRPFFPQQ
T1 sequence (P02679 27-453): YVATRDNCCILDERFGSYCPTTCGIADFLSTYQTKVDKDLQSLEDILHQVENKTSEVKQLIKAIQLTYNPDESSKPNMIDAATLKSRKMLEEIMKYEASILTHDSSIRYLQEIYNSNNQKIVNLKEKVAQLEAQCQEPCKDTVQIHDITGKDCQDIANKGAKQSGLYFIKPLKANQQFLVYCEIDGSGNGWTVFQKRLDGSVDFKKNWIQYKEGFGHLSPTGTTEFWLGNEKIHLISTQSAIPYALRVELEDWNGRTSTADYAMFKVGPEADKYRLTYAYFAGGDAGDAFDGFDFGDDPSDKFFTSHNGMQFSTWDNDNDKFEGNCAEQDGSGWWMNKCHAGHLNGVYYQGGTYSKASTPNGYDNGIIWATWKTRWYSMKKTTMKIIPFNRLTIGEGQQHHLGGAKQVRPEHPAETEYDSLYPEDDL


Tests used:
femoral vein injury = assay: Rat femoral vessel traumatic injury model; type: in vivo
Text: To test the efficacy of PLPs in hemostasis, a well-established rat femoral vessel traumatic injury model was used^13-15. This model results in an easily visualized, continuous stream of blood flowing from the injury site. All protocols were approved by the Georgia Institute of Technology IACUC. Adult Sprague-Dawley male rats (200-250 g) were anesthetized with 5% isoflurane. Following anesthesia, an incision was made on the right hindlimb to expose the femoral vessels. A portion of the femoral vein was isolated from the surrounding connective tissue by placing a small piece of foil between the vessel and the underlying tissue. Following isolation of the vessel, the cavity will be irrigated with 0.9% irrigation fluid at 37° C. Animals were then administered 500 μL of saline (vehicle), purified human factor VIIa ([…], 100 μg/kg the current standard of care, purchased from Innovative Research), PLPs (20 mg/mL) or S11-ULC microgels (20 mg/mL) via tail vein injection using a 24 gauge catheter. Six (6) animals were tested per condition. Following a 5 minute circulation time, injury was induced to the right femoral vein by piercing the vein with a 22 gauge needle. A gauze was lightly placed below the injury site to collect blood, allowing for better visualization of the injury site as well as measurement of total blood loss. Gauze were changed every ten seconds for the first 30 seconds following injury and then every 30 s until bleeding ceased. Bleeding time was defined as the time required for bleeding to cease for a minimum of 10 s. Following cessation of bleeding, animals were euthanized with carbon dioxide. Following cessation of bleeding, animals were euthanized and organs separated, fixed with 10% formalin, paraffin embedded and 5 μm sections were produced using a Microm […] Microtome (Thermo Scientific). Co-localization of PLPs were characterized through immunofluorescence staining for the MYC-tag encoded on the sdFvs and through Martius Scarlet Blue (MSB) staining for fibrin in adjacent serial sections. For MYC-tag staining, samples were counter stained with Hoescht (Invitrogen) to visualize nuclei. All statistical analyses for bleeding time studies were performed with Prism software program (GraphPad, San Diego Calif.). Bleeding and blood weight data were statistically analyzed using repeated measures analysis of variance using the Tukey test at a 95% confidence interval.

[1] = target: T1, fibrin clot polymerization; assay: Turbidity assay of fibrin clot polymerization; type: biochemical
Procedure: H6 interference with fibrin clot polymerization was determined through turbidity and clottability assays. The turbidity assay involved polymerizing physiological fibrin clots (2 mg/mL) in wells of a 96-well plate while taking absorbance measurements at 350 nm every 30 seconds. An increase in absorbance correlates to an increase in clot “cloudiness” which, in turn, indicates gelation. Turbidity of standard fibrin clots was compared to that of clots exposed to varying molar concentrations ranging from 1:1 to 1:1000 molar ratios of nanobody to fibrinogen.

Molecule | total blood loss (femoral vein injury; compared to S11-ULC microgels, p<0.05) | fibrin staining in vessels (femoral vein injury; postmortem) | localization at wound (MYC-tag staining, MSB fibrin staining) (femoral vein injury; postmortem wound tissue) | blood loss over time (bleeding dynamics) (femoral vein injury; rat) | bleeding time compared to vehicle only (femoral vein injury; rat, tail vein injection) | Bleeding time (femoral vein injury; rat, tail vein injection, 5 minute circulation time) [s] | turbidity versus fibrin controls ([1]; all other molar ratios) | turbidity versus fibrin controls ([1]; molar ratio to fibrinogen 1:1, differences not significant)
PLPs: ultra-low crosslinked pNIPAm-AAc microgels conjugated to fibrin-specific sdFv H6 (conjugate) VH: QVQLLESGGGLVQPGGSLRLSCAASGDRFTHNDMGWVRQAPGKGLEWVSTIPTTDGSTYYADSVKGRFTISRDNSKSTLYLQMNSLRAEDTAVYYCATGYMWKAPAYVKYWGQGTLVTVSSAAAEQKLISEEDLNSAAHYTDIG | significantly less | higher levels of fibrin staining | co-localization of PLPs with fibrin clots | slowest blood loss over time | significantly decreased | 117 ± 16 | – | –
H6: fibrin-specific human sdFv clone from phage biopanning, SEQ ID NO: 1 (protein) VHH: QVQLLESGGGLVQPGGSLRLSCAASGDRFTHNDMGWVRQAPGKGLEWVSTIPTTDGSTYYADSVKGRFTISRDNSKSTLYLQMNSLRAEDTAVYYCATGYMWKAPAYVKYWGQGTLVTVSSAAAEQKLISEEDLNSAAHYTDIG | – | – | – | – | – | – | indistinguishable from physiological fibrin controls | notable difference in turbidity readings
